Experimental findings from article PMC7381529 (Protein & Cell, 2020) are described below.

This series concerns the molecule itself. Description: crystal structure.

Usually stoichiometry N stands for the number of molecules, sites or subunits per partner or assembly.

“And” between values parts separate entries of the source, which are not always exact repeats. Identical values can stand only once.

B1: African swine fever virus p15 (mature protein p15, wild type) (natural protein)
chain: MPSNMKQFCKISVWLQQHDPDLLEIINNLCMLGNLSAAKYKHGVTFIYPKQAKIRDEIKKHAYSNDPSQAIKTLESLILPFYIPTPAEFTGEIGSYTGVKLEVEKTEANKVILKNGEAVLVPAADFKPFPDRRLAVWIMESGSMPLEGPPYKRKKEGG
For B1, the “stoichiometry N” value was 2 and 6.
